# Assay results from patent US20070065439A1.
# Target: Cynomolgus monkey IL-1β (cynomolgus monkey)
# Assay: Biacore low-res, mAb captured, cyno IL-1β 117 nM, 25C
# Chain of Cynomolgus monkey IL-1β (cynomolgus monkey) (P48090 117-269 limits assumed): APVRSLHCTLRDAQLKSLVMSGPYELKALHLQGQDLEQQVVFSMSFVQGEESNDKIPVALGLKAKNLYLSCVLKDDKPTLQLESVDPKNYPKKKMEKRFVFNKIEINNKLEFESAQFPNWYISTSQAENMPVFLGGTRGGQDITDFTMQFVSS
Binder,Kd [nM],koff [s⁻¹],kon [M⁻¹ s⁻¹]
"9.31.1 (antibody, human IgG4, V domains shown) VH: QVQLVESGGGLVKPGGSLRLSCAASGFTFSDYYMSWIRQAPGKGLEWVSYIRSSGSTIYYADSVKGRFTISRDNAKNSLYLQMNSLRAEDTAVYYCARTPYSGRYHWYFDLWGRGTLVTVS VL: SYELTQPPSVSVSPGQTARITCSGDALPIKYAYWYQHKSGQAPVLVIYEDSKRPSGIPERFSGSSSGTMATLTISGAQVEDEADYYCYSTDSSGNHRVFGGGTKLTVL",5,0.0015,300000
"5.5.1 (antibody, IgG4, V domains shown) VH: QVQLVESGGGVVQPGRSLRLSCAASGFTFSSYGMHWVRQAPGKGLEWVAVIWYDGDNKYYADSVQGRFTISRDNSKNTLYLQMNSLRPEDTAVYYCARERSSSWYFDYWGQGTLVTVSS VL: QSALTQPASVSGSPGQSITISCTGTSSDVGSYNLVSWYQQHPGKAPKLMIYEVSKRPSGISNRFSGSKSGNTASLTISGLQAEDEADYYCCSYAGSSTWVFGGGTKLTVL",4.6,0.0011,240000
"9.2.1 (antibody, human IgG4, V domains shown) VH: QVQLVESGGGVVQPGRSLRLSCAASGFTFNNYGMHWVRQAPGKGLECVAVIWYDGGNKYYADSVKGRFAISRDNSKNTLYLQMNSLRAEDTAVYYCTAVTTLYYYYGMDVWGQGTTVTVS VL: QSALTQPASVSGSPGQSITISCTGTSSDVGGYNYVSWYQQHPGKAPKLMIYEVSNRPSGVSNRFSGSKSGNTASLTISGLQAEDEADYYCSSYTSSSILVFGGGTKLTVL",4.5,0.0014,310000
"4.20.1 (antibody, human IgG4, V domains shown) VH: QVQLVESGGGVVQPGRSLRLSCAASGFTFSNYGMNWVRQAPGKGLEWVAVIWYDGNNKSEADSVKGRFTISRDNSKNTLYLQMNSLRAEDTAVYYCARDSRSGPFDYWGQGTLVTVSS VL: EIVLTQSPDFQSVTPKEKVTITCRASQSIGSSLHWYQQKPDQSPKLLIKFASQSFSGVPSRISGSGSGTDFTLTINSLEAEDAATYYCHQSSSLPFTFGPGTKVDIK",6.3,0.005,800000
"5.36.1 (antibody, human IgG4, V domains shown) VH: QVQLQQSGPGLVKPSQTLSLTCAISGDSVSSNSAAWNWIRQSPSRGLEWLGRTYYRSKWYNDYAVSVKSRITINPDTSKNQFSLQLNSVTPEDTAVYYCAREEQQLVRYYYYYGMDVWGQGTTVTVS VL: DIVMTQTPLSLSVTPGQPASISCKSSQSLLHSDGRTYLYWYLQRPGQPPQLLIYEASYRFSGVPDRFSGSGSGTDFTLKISRVEAEDVGIYYCMQSIQLPRTFGQGTRLEIK",3.4,0.00072,210000

# These reach a lower Kd. Values come first.
Kd [nM],koff [s⁻¹],kon [M⁻¹ s⁻¹],Binder
2.5,0.0012,470000,"8.50.1 (antibody, human IgG4, V domains shown) VH: QVQLQESGPGLVKPSETLSLTCTVSGGSISSDYWSWIRQPAGKGLEWIGRFYNSGRTNYRPSLKSRITMSVDTSKNQFSLKLSSVTAADTAVYYCARDMYSGRGNWYFDLWGRGTLVTVS VL: SYELTQPPSVSVSPGQTARITCSGDALPKKYAYWYQQKSGQAPVLVIYEDSKRPSGIPERFSGSSSGTMATLTISGAQVEDEADYYCYSTDSSDNHRVFGGGTKLTVL"
0.5,0.00012,260000,"9.19.1 (antibody, human IgG4, V domains shown) VH: QVQLVESGGGVVQPGRSLRLSCAASGFTFNNYGMHWVRQAPGKGLECVAVIWYDGGNKYYADSVKGRFAISRDNSKNTLYLQMNSLRAEDTAVYYCTAVTKLNYYYGMDVWGQRTTVTVS VL: QSALTQPASVSGSPGQSITISCTGTSSDVGGYNYVSWYQQHPGKAPKFMIYEVSNRPSGVSNRFSGSKSGNTASLTISGLQAEDEADYYCSSYTSSSILVFGGGTKLTVL"
1.3,0.0002,150000,"9.26.1 (antibody, human IgG4, V domains shown) VH: QVQLVESGGGVVQPGRSLRLSCAASGFTFNNYGMHWVRQAPGKGLECVAVIWYDGGNKYYADSVKGRFAISRDNSKNTLYLQMNSLRAEDTAVYYCTAVTKLNYYYGMDVWGQGTTVTVS VL: QSALTQPASVSGSPGQSITISCTGTSSDVGGYNYVSWYQQHPGKAPKLMIYEVSNRPSGVSNRFSGSKSGNTASLTISGLQAEDEADYYCSSYTSSSILVFGGGTKLTVL"
0.8,0.00027,330000,"9.11.1 (antibody, human IgG4, V domains shown) VH: QVQLVESGGGVVQPGRSLRLSCAASGFTFSVYGMHWVRQAPGKGLEWVAVIWYDGNNKYYVDSVKGRFTISRDNSKNTLYLQLNSLRAEDTAVYYCARERSSSWYFDYWGQGTLVTVSS VL: QSALTQPASVSGSSGQSITISCTGTSSDVGSYNLVSWYQQHPGKAPKLMIYEVSKRPSGVSNRFSGSKSGNTASLTISGLQAEDEADYYCCSYAGNSNWVFGGGTKLTVL"
1.1,0.00031,270000,"6.26.1 (antibody, human IgG4, V domains shown) VH: QLQLQESGPGLVKPSETLSLTCTVSGGSISRSSYYWGWIRQPPGKGLEWMGNIYYSGSTHYNPSLKSRVTISVDTSKNQFSLKLSSVTAADTAVFYCAKGREYISSSGYGMDVWGQGTTVTVS VL: SYELTQPPSVSVSPGQTASITCSGDKLGNKYVCWYQQKPGQSPVLVIFQDSRRPSGIPERFSGSNSGNTATLTISGTQAMDEADYYCQAWDTSTVIFGGGTKLTVL"
0.8,9.2e-05,110000,"8.18.1 (antibody, human IgG4, V domains shown) VH: QVQLQESGPGLVKPSETLSLTCTVSGGSVSSGGYYWSWIRQPPGKGLEWIGYFYYSGSPNYNPSLKRRIAISVDTSKNQFSLRLSSVTAADTAVYYCARDPMHYYGMDVWGQGTTVTVSS VL: SSELTQPPSVSVFPGQTANITCSGDKLGDKFACWYQQKPGQSPVLVIYRDNKRPSGIPERFSGSNSGNTATLTISGTQAMDEADYYCQAWDSSTYVVFGGGTKLTVL"
